Here are results for one substance from patent publication US8252740B2, “Thermally-targeted delivery of medicaments including doxorubicin” (The University of Mississippi Medical Center, priority 2006, dated 2012).

The test system of one series is MES-SA cells. As to the kind of experiment: DIC microscopy of apoptotic cell morphology. It is filed as cell-based, human. Particulars: 10 μM. As to the method:
1.9. Apoptosis Assays. For differential interference contrast (DIC) microscopy, MES-SA cells were plated onto 22 mm^2 coverslips at 50% confluence. Cells were treated as described above with the indicated protein, rinsed with PBS, and mounted onto glass slides. The unfixed cells were imaged immediately using a Zeiss Axiovert 200 DIC microscope with a 40× oil immersion objective and a Coolsnap HQ camera.
2.6. Induction of Apoptosis. […] This effect was documented by treating MES-SA cells adhered to glass cover slips with each construct and imaging them by DIC microscopy. Cells were treated for 1 h as described above, then immediately mounted on slides and imaged without fixation. […] Untreated cells were spread onto the glass, and morphological features such as nuclei and endocytic vesicles were readily visible. This morphology was not altered by simply exposing the cells to hyperthermia. […] However, such effects were minor and limited to a fraction of the cells. […] All cells examined were rounded with no discernable nucleus and fragmented chromosomes.

Series [1] is described as follows: Turbidity assay of the transition temperature (Tt). The series is classed as physicochemical. As to the method: In order to apply ELP-based polypeptides for drug delivery, a suitable temperature transition must be attained. The drug-labeled ELP should undergo its phase transition between 39 and 42° C., a temperature range sufficiently above normal body temperature to prevent unwanted systemic aggregation, but not hot enough to cause extensive toxicity. Elastin-like polypeptide is ideally suited as a thermally targeted drug carrier because the transition temperature can be easily manipulated by varying the molecular weight or the amino acid composition of the guest residue X in the VPGXG (SEQ ID NO: 2) sequence using simple molecular biology techniques. The transition temperature of Tat-ELP-GFLG-DOX (SEQ ID NO: 3) was assessed by monitoring the turbidity of a solution of the polypeptide while heating in physiological buffer. […] The polypeptide is soluble and the solution is clear at physiological temperature (37° C.).
1.4. Characterization of the Transition Temperature. The temperature induced aggregation of the proteins was characterized by monitoring absorbance at 350 nm while increasing the temperature. For initial analysis of Dox-labeled ELPs, solutions containing 10 μM protein in PBS were heated or cooled at a constant rate of 1° C./min in a temperature-controlled multicell holder in a UV-visible spectrophotometer (Cary 100, Varian instruments). The analysis was repeated with Tat-ELP1-GFLG-Dox (SEQ ID NO: 3) at concentrations ranging from 1 μM to 30 μM in cell culture media in order to determine the concentration dependence of the phase transition under experimental conditions. Absorbance data was converted to percentage of the maximal absorbance for each curve, and the Tt was defined as the temperature at which the OD350 reached 50% of the maximum turbidity. The concentration dependence of the Tt was fit using a logarithmic equation.
3.2. Thermal Properties of the Dox Delivery Vector. […] The Tt of Tat-ELP-GFLG-Dox (SEQ ID NO: 3) was assessed by monitoring the turbidity of a 10 μM solution of the polypeptide while heating in PBS. […]

In the case of Tat-ELP1-GFLG-Dox, the “Cell morphology (hallmarks of apoptosis)” value with MES-SA cells (1 h at 37° C. (below the Tt)) is “more extensive rounding and blebbing”; in the series on MES-SA cells (1 h at 42° C. (above the Tt)), “normal cell morphology was completely destroyed”. The “Transition temperature (Tt)” value in series [1] (10 μM in PBS, heated 1° C./min, midpoint of turbidity) was 40 °C. For the same substance, the “State of the solution at physiological temperature” value in series [1] (37° C.) is listed as “soluble”. Further, in series [1] (42° C.), the “State of the solution at hyperthermia temperature” value is listed as “aggregated”.
